US11781164B2, “Demethylation of reticuline and derivatives thereof with fungal cytochrome P450” (priority 2017, dated 2023)

B1: Cel_CPR_co: codon-optimized cytochrome P450 reductase from Cunninghamella elegans (protein)
chain: MAQQTPAVIDTLDLILLGSIGLGTIAWFTRRQLSERLFGTGQSNATPKPTTPQAPKRERNFVKVMEQQGRKVIFFYGSQTGTAEDFASRLAKQCSQKYGVSCMTADIEMYDLSYLDTLSEDSLVCFVMATYGEGEPTDNAVDFWEQFITDESPVFSEGGETLENLRYLMFGLGNKTYEHYNAVARILDKKLTGLGAKRIGERGEGDDDGSLEEDFLAWQESMWPTFCDALGVDENNAQQGPRQASYSVDELKEEYKNDDVYFGELGTKSKDSSRVVYDAKRPYNAPITTRELFNSSERHCLHVDIDISGTNLSYQTGDHVAMWPTNNEDEVLRLANILGLQDKLDNVISVKAIDPAAPKQHPFPVPTTYRAIFRHYIDICAPASRQSLMSFVEFAPTDSAKDLLKLLATDKDEYRLKVGEAVRNLGEVLELVSGNDKDTQPGSFTSVPFDLIVETIPRLQPRYYSISSSSKENSSIISATCVTLAYQPDPTPDRTVYGVNTNFLYRIHTQSSDNDIQGLPKYDLAGPRKAFLNEQGQSHKLPIHIRRSQFKLPRNTSCPVIMIGPGTGVAPFRGFVRERALQKKEGKSVGPTVLFFGNRHSEHDFLYSDEWPELFNTLGDDSKLITAFSRETEHKVYVQHRLEENGKDIWQLLEKGAYIYVCGDARNMARDVNQTFVNLAMEYGEKTEQKALDYVKSLRNTGRYQEDVWS
modifications: codon-optimized; Cunninghamella elegans
B2: CPR_DN10898_c0_g1_1A: native cytochrome P450 reductase clone from T. piriforme (pEV31730) (protein)
chain: MSKKPTTFAISPLDLLLLGTLGIGALLYITRKLRAAPPPAAGDAARPSDKAPSNKPERNFVKLMEQQKRRVIFFYGSQTGTAEDYASRLAKESSQKYGVSSMAADIELYDLSYLDTVPEDKLVVFVMATYGEGEPTDNAVDFWETLTDEAPMFSLGEELAPLRNLNYIVFGLGNKTYEHYNEVARVLDKRLAALGATRHGVRGEGDDDASLEEDFLAWQEDMWPAFCAALNVDESNAQAGPRQAMYGVKELEGHDENGLFLGELGEWLQPEQLQKQTAVHDAKHPYLAPIAASRDLFSHAADRHCLHLEVDIASSNLTYQTGDHIAIWPTNNDVEVLRLATVLGLADKLDTAIMVKALDSAASKKYPFPVPTTYRAAFKHYLDICSPASRQTLISLVDYAPTASSKDALHKLATDKDAYKTQVSEAARNLAEVLELCQDDEGTTAAPGFFSTVPFDLIVESVSRLQPRYYSISSSSLTSPKSVAVTAVTLSYQPSTTKSRTVYGVNTNYLWRIHAPHDASVPAYDLDGPRNTLQGKKVPVHIRRSTFKLPRNTKLPVIMVGPGTGVAPFRGFIHDRVHQKQSGKEVGPTVLFYGCRHSKQDFLYAEEWPALFEALGEGSQLITAFSRESAQKVYVQHRLKEHGEQMWKYIEQGAYIYVCGDAKNMARDVQQTFIEFAQALGNKTESQAQDYVKNLRNTGRYQEDVWS
modifications: Thamnostylum piriforme
B3: CPR_DN5866_c0_g1_Cd9: native cytochrome P450 reductase clone from T. piriforme, day 9 cDNA (pEV31725) (protein)
chain: MAQSSPALLDSLDIVFLGTIGLGTIAWFARRQIAERIFGSKDDANKNVGNGNAPTAPKRERNFVKVMQEQGRKVIFFYGSQTGTAEDYASRLAKECSQKYGVSCMTADIELYDLTYLDTVPEDFLVFFIMATYGEGEPTDNAVDFWEQLTEEEPQFSEGDTLGNLRYVVFGLGNKTYEHYNEVARRMDKLLTKLGAKRIGERGEGDDDASLEEDFLAWQDSMWPAFCDALGVDESNGSSGPRQAMYAVEELEGQEAVYLGELGEKPKEGVKVVYDAKRPYNAPLVSQDLFKNTDRHCLHIDIDVSDSNLSYQTGDHIAIWPTNSDDEVARLASLLGLTDKLDTSVMVKAIDSTASKQYPFPVPATYRSIFRHYLDICAPASRQTLMSLVEYAPTEASKEALRLLSKDKDEYRLKVGEAVRNLGEVLELAAGADARPGLFSTVPFDLIVESVSRLQPRYYSISSSAKESPKVIAVTAVTLTYNPDPTPERTVYGVNTNYLWQIHAAKHNVNDGQRYPTYDLAGPRNALQGAKVPVHIRRSQFKLPRNPTVPVIMVGPGTGVAPFRGFVRERAAQKTDGKPVGPTLLFFGCRNSQQDFLYKDEWPELFATLGDESRIVTAFSRETPQKVYVQHRLQENGEELWNLLQKGAYIYVCGDAKNMARDVNQTFVNFAIEFGGQTEEKAHDYVKNLRNSGRYQEDVWS
modifications: Thamnostylum piriforme
B4: LCOR_09548_co: codon-optimized putative cytochrome P450 A0A068S8J3 from Lichtheimia corymbifera (protein, listed as Lichtheimia corymbifera)
chain: MSSLNILSLLDNKHINAFFDNPSRAQSGIIAGSVAIVSLCAAYSLGSRLRGSNNGVPLVPYTFPIIGSTKEYQADPQAFIEKWTAKLGPVFRVHLFGRIHTVVSDRYVREVFLNNDFDFLKGTGKRFDTLLLTDTTLEDVDIEVFRTVVMKHLTKEMKHYTPRVVEHLTAGGDEKLGDATEPKELVHLFPLLQHMVAKASASIFVGTELAADDAVVETCKNIAIDIGSELGPSSYIMDAFPSLARLRMWYIGKYGKAINKHRQHLLHALGPVIDKRLAAAEKGGDWDRPQDILQDIIETINLTLDNPKRHILPVKWLLALFFASIHTTSENSTIVLYRIMQNPEIIDVLLEEQNEILEKHYGTNIDYSDTTKLFTGEVIKEMVKLDSVCREAMRSRNSYLELPHTYVGKSRITLSCGAVIEPGHDVLINMWGNHRDAKIQRDTIGDHHDFKPFRFVGLDRQSTKIGDDFLMFGQGRHACPGRWFAIQEIKTIVSVLIRYYKLTPKGPITFPTHPRMPMPTGEVIIQRRQE
modifications: codon-optimized
B5: P450_DN12791_c0_g1_C: native cytochrome P450 clone from Thamnostylum piriforme (plasmid pEV31522) (protein)
chain: MAILQNLVLQSDQRHLGVVTAAVFLSAYALYRHESKKELGNECPTVPYTNPMFGSTDEYRKNPAAFVEKWSAALGPVFRVHIFGRMQTVVSGRYVREVLFNDNFSFVEGIRTRFDLRLLTGIPNSHLNDKDVREVVVKSLTAQMKKYTPRAVHYLSVGLQEALGDLKDPRTLDNLFLTVQNMVAKASASIFVGEELCNNIELVDTFKHVTSDIGSEIRLDNTWLEFFKTINQIRMWYVGKHSPRVTKHRRQLIQAMAPEIDRRLQGLAGNDPSWTRPEDILQEIMENYPSPSTVPADIYTYYANWMIVLIFASVHTTTEHATIVLYRLLQQPELIDELLQEQKEALGQGTVFTGEVIRKLVKLDSVCRESLRIKNEYFGLPHRNMSHENISLSNGVVIKPGDNVMLNVWTNHHDSDLQKDVHGNHDKFEPFRYVNADRPATKIGDDYLIFGEGKHACPGRWFALQEIKTIVSVLIRDYTLTPCGPIVFPSGTSTGIPSGEVTIQRKSEV
modifications: Thamnostylum piriforme

How the values were obtained:
thebaine = assay: Bioconversion of thebaine (N-demethylation to northebaine) by S. cerevisiae expressing cytochrome P450s and CPRs, LC-MS; details: 0.1 mM thebaine, 0.1 M potassium phosphate buffer pH 7, 72 h, 30° C.
oripavine = assay: Bioconversion of oripavine (N-demethylation to nororipavine) by S. cerevisiae expressing cytochrome P450s and CPRs, LC-MS; details: 0.5 mM oripavine

Row | Molecule | support of N-demethylase activity of P450_DN15259_c0_g1_i7_A by CPR (northebaine) (thebaine) | further results
1 | B1 | found to support N-demethylase activity | –
2 | B2 | yielded more northebaine | –
3 | B3 | yielded more northebaine | –
4 | B4 | – | nororipavine production when oripavine was administered (oripavine; pH 7, 72 h, co-expressed with CPR_DN5866_c0_g1_i1_Cd9, CPR_DN10898_c0_g1_i1_1A or Cel_CPR_co): capable of producing nororipavine
5 | B5 | – | nororipavine titers (oripavine; pH 7, co-expressed with Cel_CPR_co, 72 h): highest nororipavine titers; oripavine N-demethylation (nororipavine), screening of T. piriforme P450 candidates (oripavine; pH 7, with CPRs from C. elegans, G. fujikuroi and S. cerevisiae, 72 h): identified as an oripavine N-demethylase
